# Source: US20140161821A1, “TREATMENT WITH ANTI-PCSK9 ANTIBODIES” (PFIZER INC., priority 2011, published 2014)
# B1: L1L3: humanized (<5% murine residues) monoclonal PCSK9 antagonist antibody that binds to secreted PCSK9; VH SEQ ID NO: 11, VL SEQ ID NO: 12 (antibody, V domains shown)
# VH: QVQLVQSGAEVKKPGASVKVSCKASGYTFTSYYMHWVRQAPGQGLEWMGEISPFGGRTNYNEKFKSRVTMTRDTSTSTVYMELSSLRSEDTAVYYCARERPLYASDLWGQGTTVTVSS
# VL: DIQMTQSPSSLSASVGDRVTITCRASQGISSALAWYQQKPGKAPKLLIYSASYRYTGVPSRFSGSGSGTDFTFTISSLQPEDIATYYCQQRYSLWRTFGQGTKLEIK
# modifications: heavy chain variable region; light chain variable region
# Biological target: T1, PCSK9 (Homo sapiens, UniProt Q8NBP7)
# T1 construct: PCSK9 antagonist antibody that antagonizes circulating PCSK9; endogenous in cells; host or cells: human subjects in clinical trials (in vivo, circulating PCSK9)
# T1 sequence (Q8NBP7 153-692): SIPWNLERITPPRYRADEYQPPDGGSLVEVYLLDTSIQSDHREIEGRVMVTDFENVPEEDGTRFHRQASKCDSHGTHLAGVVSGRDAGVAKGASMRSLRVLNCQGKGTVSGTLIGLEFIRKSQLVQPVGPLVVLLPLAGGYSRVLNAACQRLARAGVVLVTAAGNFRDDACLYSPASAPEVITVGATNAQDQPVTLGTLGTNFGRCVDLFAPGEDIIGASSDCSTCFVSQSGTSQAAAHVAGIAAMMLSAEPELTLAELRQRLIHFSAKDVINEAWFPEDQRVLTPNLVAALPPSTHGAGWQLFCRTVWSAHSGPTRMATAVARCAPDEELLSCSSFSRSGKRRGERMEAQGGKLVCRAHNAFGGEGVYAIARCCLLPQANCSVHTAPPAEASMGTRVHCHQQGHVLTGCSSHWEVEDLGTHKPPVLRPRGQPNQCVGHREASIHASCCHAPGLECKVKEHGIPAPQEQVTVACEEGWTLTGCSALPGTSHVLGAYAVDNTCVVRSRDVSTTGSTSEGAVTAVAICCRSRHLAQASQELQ
# T1 sequence (Q8NBP7 31-152 partner limits assumed): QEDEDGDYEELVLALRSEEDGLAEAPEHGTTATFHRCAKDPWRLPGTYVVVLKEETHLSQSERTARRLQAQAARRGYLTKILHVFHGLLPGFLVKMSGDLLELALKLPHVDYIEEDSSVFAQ
# Experiment: Example 2 clinical study, single escalating IV doses: fasting lipids
# Format: in vivo
# Protocol: The study entailed a randomized, placebo-controlled, ascending, single dose study of L1L3. The subjects, investigator, and site personnel (except site personnel responsible for drug preparation) were blinded to treatment assignments, as was the CRO designee; while the Sponsor clinical research team was unblinded. The study was conducted in 6 planned cohorts of 8 subjects per cohort in an effort to seek a maximum tolerated dose or MTD (total of approximately 48 subjects). […] Doses were administered following an overnight fast as an intravenous infusion over 60 minutes. […] Infusions will be administered as a single infusion over 60 minutes.
# Change in serum lipids (total cholesterol, LDL, HDL, Triglycerides, Non-HDL-C and Apoprotein B) were assessed.
# Collection of fasting lipid profile was performed after at least a 10-hour fast (total cholesterol, LDL, HDL, Non-HDL Cholesterol, Apo B and triglycerides).
molecule,measurement,setting,value
B1,"Fasting apolipoprotein B (apo B), % below baseline","0.3 mg/kg, by day 7",about 25%
same,"Fasting apolipoprotein B (apo B), % below baseline","1 mg/kg, by day 14",about 40%
same,"Fasting apolipoprotein B (apo B), % below baseline","3 mg/kg, by day 14",about 40%
same,"Fasting apolipoprotein B (apo B), % below baseline","3 mg/kg, by day 28",about 50%
same,Fasting LDL-C levels,"6 mg/kg or 12 mg/kg, by day 14 post-dosing",about 55 mg/dL
same,"Fasting apolipoprotein B (apo B), % below baseline","6 mg/kg, by day 14",about 40%
same,"Fasting apolipoprotein B (apo B), % below baseline","6 mg/kg, by day 21",about 50%
same,"Fasting apolipoprotein B (apo B), % below baseline","6 mg/kg, generally, remainder of the study",> 30%
same,LDL-C percentage change from baseline (lowering),"18 mg/kg, FIG. 2",up to 83%
same,Fasting LDL-C levels,"18 mg/kg, by day 14 post-dosing",about 20 mg/dL
same,Fasting LDL-C levels,"1, 3, 6, 12, or 18 mg/kg, by day 14 post-dosing",≤ 70 mg/dL
same,"Fasting apolipoprotein B (apo B), % below baseline","12 or 18 mg/kg, by day 14, baseline about 119 mg/dL",about 50%
same,"Fasting apolipoprotein B (apo B), % below baseline","12 or 18 mg/kg, remainder of the study after day 14",≥ 50%
same,Earliest day LDL-C lowering effects were seen,all dosage groups,3 days
same,Day of maximum percentage LDL-C lowering,"in general, all dosage groups",Day 15 or Day 22
same,Duration of maximum LDL-C lowering effect,single 0.3 mg/kg,7 days
same,"Fasting total cholesterol (TC), % reduced","single 0.3 mg/kg, by about day 9",about 25%
same,Fasting LDL-C levels,"single 0.3 mg/kg, day 7 post-dosing",about 85 mg/dL
same,Fasting LDL-C levels,"single 0.3 mg/kg, until about 10 days post-dosing",below 100 mg/dL
same,Duration of maximum LDL-C lowering effect,single 1.0 mg/kg,14 days
same,"Fasting total cholesterol (TC), % below baseline","single 1 mg/kg, by about day 15",about 36%
same,Fasting LDL-C levels,"single 1 mg/kg, day 14 post-dosing",about 65 mg/dL
same,Fasting LDL-C levels,"single 1 mg/kg, until about 21 days post-dosing",below 100 mg/dL
same,Duration of maximum LDL-C lowering effect,single 3.0 mg/kg,up to 4 weeks
same,"Fasting total cholesterol (TC), % below baseline","single 3 mg/kg, by about day 9",about 30%
same,"Fasting total cholesterol (TC), % below baseline","single 3 mg/kg, by about day 22",about 40%
same,Fasting LDL-C levels,"single 3 mg/kg, day 14 post-dosing",about 70 mg/dL
same,Fasting LDL-C levels,"single 3 mg/kg, day 21 post-dosing",about 60 mg/dL
same,"LDL-C levels, % below baseline","single 3 mg/kg, maintained up to 29 days post administration",> 60%
same,"LDL-C levels, % below baseline","single 3 mg/kg, maintained up to 50 days post administration",> 20%
same,Fasting LDL-C levels,"single 3 mg/kg, until about 36 days post-dosing",below 100 mg/dL
same,"LDL-C levels, % below baseline","single 6 mg/kg or 12 mg/kg, maintained up to 43 days post administration",> 60%
same,Duration of maximum LDL-C lowering effect,"single 6 mg/kg, 12 mg/kg, and 18 mg/kg",more than 6 weeks
same,"Fasting total cholesterol (TC), % below baseline","single 6 mg/kg, by about day 9 until about day 52 post-dosing",≥ 30%
same,"Fasting total cholesterol (TC), % below baseline, in a number of subjects","single 6 mg/kg, by day 30 post-dosing",> 50%
same,Fasting LDL-C levels,"single 6 mg/kg, for about 42 days post-dosing",below 50 mg/dL
same,Fasting LDL-C levels,"single 6 mg/kg, until at least about 57 days post-dosing",below 100 mg/dL
same,Fasting LDL-C levels,"single 12 mg/kg, until at least about 57 days post-dosing (end of study)",≤ 60 mg/dL
same,"LDL-C levels, % below baseline","single 18 mg/kg, maintained at least up to 57 days post administration",> 65%
same,Fasting LDL-C levels,"single 18 mg/kg, until at least about 57 days post-dosing",below 50 mg/dL
same,"Fasting total cholesterol (TC), % below baseline","single 12 or 18 mg/kg, by about day 9, lasting at least to day 57, baseline about 230 mg/dL",≥ 30%
same,"Fasting total cholesterol (TC), % below baseline, in a number of subjects","single 12 or 18 mg/kg, by day 15 post-dosing",> 50%
same,mean percentage change from baseline of fasting LDL-C,"single IV 0.3 mg/kg, visit day 1",0.000%
same,mean percentage change from baseline of fasting LDL-C,"single IV 0.3 mg/kg, visit day 2",−15.8%
same,mean percentage change from baseline of fasting LDL-C,"single IV 0.3 mg/kg, visit day 3",−14.13%
same,mean percentage change from baseline of fasting LDL-C,"single IV 0.3 mg/kg, visit day 4",−30.14%
same,mean percentage change from baseline of fasting LDL-C,"single IV 0.3 mg/kg, visit day 8",−42.86%
same,mean percentage change from baseline of fasting LDL-C,"single IV 0.3 mg/kg, visit day 15",−23.68%
same,mean percentage change from baseline of fasting LDL-C,"single IV 0.3 mg/kg, visit day 22",−11.36%
same,mean percentage change from baseline of fasting LDL-C,"single IV 0.3 mg/kg, visit day 29",−9.12%
same,mean percentage change from baseline of fasting LDL-C,"single IV 1 mg/kg, visit day 1",0.000%
same,mean percentage change from baseline of fasting LDL-C,"single IV 1 mg/kg, visit day 2",−0.33%
same,mean percentage change from baseline of fasting LDL-C,"single IV 1 mg/kg, visit day 3",−9.79%
same,mean percentage change from baseline of fasting LDL-C,"single IV 1 mg/kg, visit day 4",−19.14%
same,mean percentage change from baseline of fasting LDL-C,"single IV 1 mg/kg, visit day 8",−33.33%
same,mean percentage change from baseline of fasting LDL-C,"single IV 1 mg/kg, visit day 15",−50.50%
same,mean percentage change from baseline of fasting LDL-C,"single IV 1 mg/kg, visit day 22",−22.40%
